Assay results: IntAct's records for PubMed 29997244

B1: DnaJ homolog subfamily C member 5 (Homo sapiens), Q9H3Z4 (parent)
chain: MADQRQRSLSTSGESLYHVLGLDKNATSDDIKKSYRKLALKYHPDKNPDNPEAADKFKEINNAHAILTDATKRNIYDKYGSLGLYVAEQFGEENVNTYFVLSSWWAKALFVFCGLLTCCYCCCCLCCCFNCCCGKCKPKAPEGEETEFYVSPEDLEAQLQSDEREATDTPIVIQPASATETTQLTADSHPSYHTDGFN
partner: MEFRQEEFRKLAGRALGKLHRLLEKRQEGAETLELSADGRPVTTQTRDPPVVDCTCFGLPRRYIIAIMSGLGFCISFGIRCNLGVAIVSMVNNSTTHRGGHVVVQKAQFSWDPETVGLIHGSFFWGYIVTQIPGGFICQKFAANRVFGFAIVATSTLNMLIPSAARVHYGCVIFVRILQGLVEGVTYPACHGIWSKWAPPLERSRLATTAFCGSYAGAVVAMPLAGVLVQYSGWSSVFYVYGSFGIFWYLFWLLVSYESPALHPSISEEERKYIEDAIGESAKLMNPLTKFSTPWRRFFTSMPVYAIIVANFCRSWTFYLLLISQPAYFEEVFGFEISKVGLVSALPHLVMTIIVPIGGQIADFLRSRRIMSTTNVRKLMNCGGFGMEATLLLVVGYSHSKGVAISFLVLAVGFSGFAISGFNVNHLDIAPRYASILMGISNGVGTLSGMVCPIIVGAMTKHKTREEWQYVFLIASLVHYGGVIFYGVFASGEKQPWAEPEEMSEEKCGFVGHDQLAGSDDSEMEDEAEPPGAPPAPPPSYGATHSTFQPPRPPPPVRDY
B2: DnaJ homolog subfamily C member 5 (Homo sapiens), Q9H3Z4 (parent)
chain: B1 chain
partner: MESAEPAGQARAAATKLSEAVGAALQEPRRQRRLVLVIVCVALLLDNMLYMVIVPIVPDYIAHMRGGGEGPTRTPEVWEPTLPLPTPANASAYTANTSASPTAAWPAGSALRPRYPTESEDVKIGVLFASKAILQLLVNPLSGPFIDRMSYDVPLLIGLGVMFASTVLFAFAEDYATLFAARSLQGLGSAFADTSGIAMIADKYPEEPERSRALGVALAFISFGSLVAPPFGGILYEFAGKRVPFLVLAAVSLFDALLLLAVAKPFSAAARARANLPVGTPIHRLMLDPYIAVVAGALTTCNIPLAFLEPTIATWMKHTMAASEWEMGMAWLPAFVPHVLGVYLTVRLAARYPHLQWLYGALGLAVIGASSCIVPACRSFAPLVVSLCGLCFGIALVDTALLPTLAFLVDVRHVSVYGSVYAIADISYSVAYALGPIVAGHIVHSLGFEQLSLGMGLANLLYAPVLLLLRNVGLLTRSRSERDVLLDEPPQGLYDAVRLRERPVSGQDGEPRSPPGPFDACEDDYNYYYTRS
B3: DnaJ homolog subfamily C member 5 (Homo sapiens), Q9H3Z4 (parent)
chain: B1 chain
partner: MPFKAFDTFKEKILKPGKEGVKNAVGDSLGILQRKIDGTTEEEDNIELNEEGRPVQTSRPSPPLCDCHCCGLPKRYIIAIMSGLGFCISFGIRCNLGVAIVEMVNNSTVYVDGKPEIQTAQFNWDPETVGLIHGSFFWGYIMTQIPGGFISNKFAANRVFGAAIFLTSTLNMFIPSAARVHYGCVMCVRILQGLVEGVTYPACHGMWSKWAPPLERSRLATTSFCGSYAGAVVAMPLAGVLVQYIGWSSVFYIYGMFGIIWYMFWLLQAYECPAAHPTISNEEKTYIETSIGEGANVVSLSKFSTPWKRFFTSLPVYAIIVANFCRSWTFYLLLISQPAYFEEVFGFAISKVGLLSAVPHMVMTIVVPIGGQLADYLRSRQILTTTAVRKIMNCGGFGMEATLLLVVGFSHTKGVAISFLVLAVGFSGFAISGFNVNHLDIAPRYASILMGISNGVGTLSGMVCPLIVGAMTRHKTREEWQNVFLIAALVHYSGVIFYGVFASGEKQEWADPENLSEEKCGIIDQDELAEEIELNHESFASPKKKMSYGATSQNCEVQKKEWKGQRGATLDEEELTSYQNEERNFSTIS
B4: DnaJ homolog subfamily C member 5 (Homo sapiens), Q9H3Z4 (parent)
chain: B1 chain
partner: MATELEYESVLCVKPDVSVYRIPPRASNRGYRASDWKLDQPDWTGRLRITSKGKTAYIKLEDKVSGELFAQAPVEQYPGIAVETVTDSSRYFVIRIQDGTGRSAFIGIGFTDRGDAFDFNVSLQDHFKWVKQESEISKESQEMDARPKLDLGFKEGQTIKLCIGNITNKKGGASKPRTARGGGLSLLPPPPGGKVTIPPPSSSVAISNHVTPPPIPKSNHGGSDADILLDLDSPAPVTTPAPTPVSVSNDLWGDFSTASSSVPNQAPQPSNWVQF
B5: DnaJ homolog subfamily C member 5 (Homo sapiens), Q9H3Z4 (parent)
chain: B1 chain
partner: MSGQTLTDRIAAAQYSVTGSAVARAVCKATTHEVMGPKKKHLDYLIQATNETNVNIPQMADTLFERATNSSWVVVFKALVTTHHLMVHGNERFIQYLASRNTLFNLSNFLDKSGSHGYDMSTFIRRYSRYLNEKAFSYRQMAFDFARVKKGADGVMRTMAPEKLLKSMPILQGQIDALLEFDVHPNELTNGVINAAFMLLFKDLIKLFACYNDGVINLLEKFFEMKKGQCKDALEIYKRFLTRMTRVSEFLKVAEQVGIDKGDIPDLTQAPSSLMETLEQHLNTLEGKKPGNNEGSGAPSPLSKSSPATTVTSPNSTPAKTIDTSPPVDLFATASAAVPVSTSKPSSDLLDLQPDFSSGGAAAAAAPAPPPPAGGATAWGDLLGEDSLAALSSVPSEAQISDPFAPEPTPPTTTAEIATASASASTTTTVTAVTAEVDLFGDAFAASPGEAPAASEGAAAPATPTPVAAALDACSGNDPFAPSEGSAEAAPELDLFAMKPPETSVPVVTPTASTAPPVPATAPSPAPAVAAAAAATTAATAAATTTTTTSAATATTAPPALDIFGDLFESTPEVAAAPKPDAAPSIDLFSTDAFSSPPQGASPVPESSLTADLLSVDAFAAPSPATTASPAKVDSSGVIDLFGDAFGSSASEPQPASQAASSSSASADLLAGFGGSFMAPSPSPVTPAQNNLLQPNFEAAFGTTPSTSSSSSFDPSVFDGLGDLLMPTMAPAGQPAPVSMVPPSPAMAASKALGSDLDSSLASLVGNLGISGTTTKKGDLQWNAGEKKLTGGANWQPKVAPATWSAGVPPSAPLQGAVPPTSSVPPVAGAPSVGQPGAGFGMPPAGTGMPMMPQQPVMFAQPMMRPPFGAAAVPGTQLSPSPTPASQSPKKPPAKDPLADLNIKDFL
B6: DnaJ homolog subfamily C member 5 (Homo sapiens), Q9H3Z4 (parent)
chain: B1 chain
partner: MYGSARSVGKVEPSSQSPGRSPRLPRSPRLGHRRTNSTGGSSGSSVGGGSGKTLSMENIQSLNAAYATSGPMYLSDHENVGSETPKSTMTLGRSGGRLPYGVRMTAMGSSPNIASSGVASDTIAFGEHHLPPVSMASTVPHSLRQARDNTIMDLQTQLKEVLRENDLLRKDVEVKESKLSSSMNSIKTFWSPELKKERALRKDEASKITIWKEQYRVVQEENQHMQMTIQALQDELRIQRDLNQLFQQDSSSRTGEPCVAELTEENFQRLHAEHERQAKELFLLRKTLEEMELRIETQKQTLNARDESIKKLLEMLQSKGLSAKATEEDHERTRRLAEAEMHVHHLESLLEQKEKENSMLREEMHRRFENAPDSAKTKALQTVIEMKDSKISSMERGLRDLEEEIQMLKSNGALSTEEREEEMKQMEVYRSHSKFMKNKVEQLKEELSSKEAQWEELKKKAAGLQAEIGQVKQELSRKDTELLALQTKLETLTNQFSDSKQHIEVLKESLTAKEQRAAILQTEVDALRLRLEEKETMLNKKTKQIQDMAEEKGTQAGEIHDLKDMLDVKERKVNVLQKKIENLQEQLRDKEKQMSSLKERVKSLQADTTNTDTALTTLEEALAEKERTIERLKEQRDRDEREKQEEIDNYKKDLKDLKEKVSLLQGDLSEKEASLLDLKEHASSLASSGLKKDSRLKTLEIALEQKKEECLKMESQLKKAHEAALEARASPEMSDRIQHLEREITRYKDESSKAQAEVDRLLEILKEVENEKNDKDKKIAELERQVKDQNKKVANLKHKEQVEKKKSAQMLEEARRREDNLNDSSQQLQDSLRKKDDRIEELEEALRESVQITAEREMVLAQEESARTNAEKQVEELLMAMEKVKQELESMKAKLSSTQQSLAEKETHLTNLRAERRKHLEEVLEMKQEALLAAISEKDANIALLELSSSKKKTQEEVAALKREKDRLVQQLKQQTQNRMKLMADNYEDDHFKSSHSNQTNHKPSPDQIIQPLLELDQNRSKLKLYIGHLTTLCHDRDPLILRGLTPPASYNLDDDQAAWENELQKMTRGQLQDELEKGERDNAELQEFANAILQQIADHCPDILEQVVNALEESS
B7: DnaJ homolog subfamily C member 5 (Homo sapiens), Q9H3Z4 (parent)
chain: B1 chain
partner: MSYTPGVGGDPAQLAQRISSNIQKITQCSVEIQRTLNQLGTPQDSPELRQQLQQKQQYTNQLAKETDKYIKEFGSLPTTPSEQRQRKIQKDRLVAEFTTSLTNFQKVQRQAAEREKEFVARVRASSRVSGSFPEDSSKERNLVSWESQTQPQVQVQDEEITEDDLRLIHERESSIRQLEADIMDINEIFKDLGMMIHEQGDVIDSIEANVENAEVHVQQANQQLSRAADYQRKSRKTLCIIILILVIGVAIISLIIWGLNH
B8: DnaJ homolog subfamily C member 5 (Homo sapiens), Q9H3Z4 (parent)
chain: B1 chain
partner: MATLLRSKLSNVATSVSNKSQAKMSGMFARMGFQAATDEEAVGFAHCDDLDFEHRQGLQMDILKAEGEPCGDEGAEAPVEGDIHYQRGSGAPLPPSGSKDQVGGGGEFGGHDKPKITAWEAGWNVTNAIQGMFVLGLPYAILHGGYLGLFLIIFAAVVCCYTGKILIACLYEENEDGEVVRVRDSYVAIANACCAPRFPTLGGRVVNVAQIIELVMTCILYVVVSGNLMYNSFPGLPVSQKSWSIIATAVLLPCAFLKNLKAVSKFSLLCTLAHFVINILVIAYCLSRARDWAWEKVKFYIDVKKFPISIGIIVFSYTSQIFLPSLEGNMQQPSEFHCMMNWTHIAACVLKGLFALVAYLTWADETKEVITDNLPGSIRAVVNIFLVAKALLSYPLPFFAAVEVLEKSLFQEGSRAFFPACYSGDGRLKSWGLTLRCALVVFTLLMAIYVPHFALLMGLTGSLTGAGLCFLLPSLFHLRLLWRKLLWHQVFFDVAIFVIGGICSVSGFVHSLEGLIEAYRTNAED

Variants of: B1
Settings: with vglu1_human SLC17A7, Q9P2U7

Row | Variant | effect of a mutation on the interaction
1 | L115R | with no effect

Variants of: B2
Settings: with vacht_human SLC18A3, Q16572

Row | Variant | effect of a mutation on the interaction
2 | L115R | with no effect

Variants of: B3
Settings: with vglu3_human SLC17A8, Q8NDX2

Row | Variant | effect of a mutation on the interaction
3 | L115R | with no effect

Variants of: B4
Settings: with necp1_human NECAP1, Q8NC96

Row | Variant | effect of a mutation on the interaction
4 | L115R | with no effect

Variants of: B5
Settings: with ap180_human SNAP91, O60641

Row | Variant | effect of a mutation on the interaction
5 | L115R | with no effect

Variants of: B6
Settings: with rb6i2_human ERC1, Q8IUD2

Row | Variant | effect of a mutation on the interaction
6 | L115R | with no effect

Variants of: B7
Settings: with stx7_human STX7, O15400

Row | Variant | effect of a mutation on the interaction
7 | L115R | decreasing interaction strength

Variants of: B8
Settings: with viaat_human SLC32A1, Q9H598

Row | Variant | effect of a mutation on the interaction
8 | L115R | with no effect
